Measurements from PMC9376891 (Nature Communications, 2022).

Molecular target: T1, Rae1(31-368)-Nup98(157-213) heterodimer (human, UniProt P78406 31-368; P52948 157-213)
T1 construct: also called Rae1-Nup98; Rae1-Nup98 complex
Test: ITC
Conditions: both partners purified
T1 sequence (P78406 31-368, chain 1 of 2): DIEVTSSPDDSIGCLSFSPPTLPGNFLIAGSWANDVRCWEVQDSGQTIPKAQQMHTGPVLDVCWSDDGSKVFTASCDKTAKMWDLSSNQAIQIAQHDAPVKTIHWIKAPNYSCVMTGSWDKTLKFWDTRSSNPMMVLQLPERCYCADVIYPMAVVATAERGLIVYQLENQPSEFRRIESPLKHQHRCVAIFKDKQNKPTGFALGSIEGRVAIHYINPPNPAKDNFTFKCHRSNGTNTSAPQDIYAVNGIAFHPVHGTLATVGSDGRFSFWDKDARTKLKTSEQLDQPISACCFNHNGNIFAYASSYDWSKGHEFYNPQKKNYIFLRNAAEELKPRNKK
T1 sequence (P52948 157-213, chain 2 of 2): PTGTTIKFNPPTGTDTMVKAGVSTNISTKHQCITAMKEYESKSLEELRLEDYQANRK

Row | Binder | fold reduction of binding affinity against SARS-CoV-2 ORF6 C3 | Kd | fold increase of binding affinity against SARS-CoV-2 ORF6 C3
1 | YSQLDEEQPMEAD (source: synthetic peptide) [SARS-CoV-2 ORF6 C3 peptide I60A] | ~17.5 fold | – | –
2 | YSQLDEEQPLEID (source: synthetic peptide) [SARS-CoV-2 ORF6 C3 peptide M58L] | – | 10400 nM | –
3 | YSQLDEEEPMEID (source: synthetic peptide) [SARS-CoV-2 ORF6 C3 peptide Q56E] | – | – | ~6 fold

Molecular target: T2, Rae1(31-368)-Nup98(157-213) heterodimer (human, UniProt P78406 31-368; P52948 157-213)
T2 construct: also called Rae1-Nup98; Rae1-Nup98 complex
Test: ITC
Conditions: both partners purified
T2 sequence (P78406 31-368, chain 1 of 2): as the sequence (P78406 31-368, chain 1 of 2) above
T2 sequence (P52948 157-213, chain 2 of 2): as the sequence (P52948 157-213, chain 2 of 2) above

Row | Binder | Ka | stoichiometry N | Kd
4 | YSQLDEEQPLEID (source: synthetic peptide) [SARS-CoV-2 ORF6-M58L] | 96400 M⁻¹ | 1 | –
5 | YSQLDEEQPMEAD (source: synthetic peptide) [SARS-CoV-2 ORF6-I60A] | 238000 M⁻¹ | 0.68 | 4200 nM
6 | YSQLDEEQPMEIA (source: synthetic peptide) [SARS-CoV-2 ORF6-D61A] | 361000 M⁻¹ | 0.76 | 2770 nM
7 | YSQLDEEQAMEID (source: synthetic peptide) [SARS-CoV-2 ORF6-P57A] | 1.12e+06 M⁻¹ | 2.34 | 890 nM
8 | YSQLDEEQPMAID (source: synthetic peptide) [SARS-CoV-2 ORF6-E59A] | 606000 M⁻¹ | 0.68 | 1650 nM

Molecular target: T2, Rae1(31-368)-Nup98(157-213) heterodimer
Test: ITC
Conditions: both partners purified
Remark: another data set of the same source

Row | Binder | Ka | Kd | stoichiometry N
9 | YSQLAEEQPMEID (source: synthetic peptide) [SARS-CoV-2 ORF6-D53A] | 863000 M⁻¹ | 1150 nM | 0.71
10 | YSQLDAEQPMEID (source: synthetic peptide) [SARS-CoV-2 ORF6-E54A] | 1.72e+06 M⁻¹ | 580 nM | 0.59
11 | YSQLDEEEPMEID (source: synthetic peptide) [SARS-CoV-2 ORF6-Q56E] | 2.08e+07 M⁻¹ | 40 nM | 0.781
12 | YSQLDEAQPMEID (source: synthetic peptide) [SARS-CoV-2 ORF6-E55A] | 1.75e+06 M⁻¹ | 570 nM | 0.65
